Laboratory results published in article PMC5247705.

Legend:
[1] = molecular target: rTLR5^N14-Avitag, biotinylated (zebrafish | hagfish) (UniProt B3DIN1); assay: ELISA; competitive binding assay: 96-well plates coated with 0.2 μg/ml bsflagellin in PBS; serially diluted soluble flagellin and 0.02 μg/ml biotinylated rTLR5^N14-Avitag incubated together for 48 hours at 4 °C in 1% BSA in PBS-T; detected with HRP-streptavidin
[2] = molecular target: human Toll-like receptor 5 on HEK293^TLR5 reporter cells (human) (UniProt O60602)
Sequence of UniProt O60602 (O60602 21-858): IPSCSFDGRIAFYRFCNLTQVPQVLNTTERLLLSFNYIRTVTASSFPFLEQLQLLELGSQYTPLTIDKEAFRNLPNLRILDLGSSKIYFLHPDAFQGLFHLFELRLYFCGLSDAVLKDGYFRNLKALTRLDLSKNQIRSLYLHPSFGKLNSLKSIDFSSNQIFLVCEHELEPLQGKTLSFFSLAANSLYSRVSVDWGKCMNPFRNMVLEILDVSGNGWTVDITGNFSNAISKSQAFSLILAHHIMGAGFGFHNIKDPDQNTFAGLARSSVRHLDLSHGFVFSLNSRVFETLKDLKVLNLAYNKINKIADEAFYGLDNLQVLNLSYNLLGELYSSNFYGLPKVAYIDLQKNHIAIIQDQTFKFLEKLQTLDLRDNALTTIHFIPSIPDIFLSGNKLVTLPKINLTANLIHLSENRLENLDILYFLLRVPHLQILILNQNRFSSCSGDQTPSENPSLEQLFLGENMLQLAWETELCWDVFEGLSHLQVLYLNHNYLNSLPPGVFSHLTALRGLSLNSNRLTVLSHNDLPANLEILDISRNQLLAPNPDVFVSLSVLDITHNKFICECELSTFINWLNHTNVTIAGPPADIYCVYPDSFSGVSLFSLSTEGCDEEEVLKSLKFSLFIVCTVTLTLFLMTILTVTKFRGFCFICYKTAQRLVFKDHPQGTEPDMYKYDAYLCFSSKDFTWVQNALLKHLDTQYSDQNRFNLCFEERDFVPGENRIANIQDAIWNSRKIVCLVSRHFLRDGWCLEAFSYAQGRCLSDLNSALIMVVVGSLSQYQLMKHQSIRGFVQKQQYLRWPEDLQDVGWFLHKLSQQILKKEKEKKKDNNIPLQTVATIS

[3] = molecular target: rTLR5^N14, tag-free (zebrafish TLR5 LRRNT-LRR14 fused to the C-terminal fragment of hagfish variable lymphocyte receptor) (zebrafish | hagfish) (UniProt B3DIN1); assay: native gel or EMSA; purified flagellin and rTLR5^N14 incubated at 18 °C for 30 minutes; native PAGE on 6% polyacrylamide gels at room temperature for 1.5 hours at 100 V
[4] = molecular target: rTLR5^N14, tag-free (zebrafish TLR5 LRRNT-LRR14 fused to the C-terminal fragment of hagfish variable lymphocyte receptor) (zebrafish | hagfish) (UniProt B3DIN1); assay: SEC; purified flagellin and rTLR5^N14 incubated at 18 °C for 30 minutes; Superdex 200 10/300 column; elution monitored at 222 nm
[5] = molecular target: human Toll-like receptor 5 on HEK293^TLR5 reporter cells (human) (UniProt O60602); remark: listed apart in the source
[6] = molecular target: human Toll-like receptor 5 on HEK293^TLR5 reporter cells (human) (UniProt O60602); remark: listed apart in the source
[7] = molecular target: rTLR5^N14, tag-free (zebrafish TLR5 LRRNT-LRR14 fused to the C-terminal fragment of hagfish variable lymphocyte receptor) (zebrafish | hagfish) (UniProt B3DIN1); assay: crystal structure; bsflagellin^cent-rTLR5^N14 complex, 2.1 Å; crystallised in 17.5% (w/v) PEG 300, 50 mM sodium acetate, pH 4.4 at 18 °C

| Substance | IC50 [1] [nM] | EC50 (pM) for TLR5 signaling; NF-κB-inducible SEAP reporter in HEK293^TLR5 cells [2] [pM] | also measured |
| --- | --- | --- | --- |
| Bacillus subtilis flagellin (Hag), full-length wild type (from UniProt P02968 1-304) (natural protein) | 0.204 | 1.18 | stoichiometry N [3]: 1; stoichiometry N [4]: 1 |
| Escherichia coli flagellin, full length (from UniProt P04949 1-498) (natural protein) | 0.517 | 1.13 |  |
| Pseudomonas aeruginosa flagellin, full length (from UniProt P21184 1-394) (natural protein) | 0.673 | 1.68 |  |
| Salmonella enterica subspecies enterica serovar Dublin flagellin, full length (from UniProt Q06971 1-505) (natural protein) | 0.289 | 0.57 |  |
| Shigella flexneri flagellin, full length (from UniProt Q08860 1-550) (natural protein) | 0.414 | 1.57 |  |
| bsflagellin E114A mutant (from UniProt P02968 1-304) (natural protein) |  |  | TLR5 activity in the HEK293^TLR5 reporter cell assay, fold reduction against bsflagellin^WT [5]: 6 fold |
| bsflagellin L93A mutant (from UniProt P02968 1-304) (natural protein) |  |  | TLR5 activity in the HEK293^TLR5 reporter cell assay, fold reduction against bsflagellin^WT [5]: 2 fold |
| bsflagellin R89A mutant (from UniProt P02968 1-304) (natural protein) |  |  | HEK293^TLR5 reporter cell activity, fold change of EC50 against bsflagellin^WT [6]: 49 fold; fold lower activity in the competitive rTLR5^N14-binding assay [1]: 10 fold |
| central region of bsflagellin (bsflagellin^cent; D1 residues 54-230) (from UniProt P02968 54-230) (domain or fragment) |  |  | stoichiometry N [7]: 1 |
